Tested on: T1, C. elegans HIF-α homologue, wild type
T1 sequence: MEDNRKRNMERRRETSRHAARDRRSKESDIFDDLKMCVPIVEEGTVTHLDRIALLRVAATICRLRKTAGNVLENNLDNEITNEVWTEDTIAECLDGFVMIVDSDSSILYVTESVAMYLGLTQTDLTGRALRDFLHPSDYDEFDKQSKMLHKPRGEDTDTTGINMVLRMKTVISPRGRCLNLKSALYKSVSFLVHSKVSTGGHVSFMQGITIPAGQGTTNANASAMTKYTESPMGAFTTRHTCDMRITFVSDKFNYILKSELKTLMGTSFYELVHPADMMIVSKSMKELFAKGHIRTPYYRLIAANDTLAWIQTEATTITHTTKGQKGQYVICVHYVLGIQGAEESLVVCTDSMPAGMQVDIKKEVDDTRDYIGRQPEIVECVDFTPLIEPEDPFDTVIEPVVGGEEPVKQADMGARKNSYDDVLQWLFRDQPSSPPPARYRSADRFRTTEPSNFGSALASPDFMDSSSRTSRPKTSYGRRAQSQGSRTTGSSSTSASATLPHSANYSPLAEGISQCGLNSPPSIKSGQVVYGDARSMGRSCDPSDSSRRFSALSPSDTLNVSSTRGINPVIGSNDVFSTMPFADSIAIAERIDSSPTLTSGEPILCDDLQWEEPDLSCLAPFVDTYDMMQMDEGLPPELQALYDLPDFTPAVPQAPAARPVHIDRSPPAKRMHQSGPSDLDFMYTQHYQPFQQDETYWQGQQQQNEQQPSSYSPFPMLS

Substance: gene product of the predicted ORF T20B3.7
- modification of HIF-1 read by HA.VHL-1 capture: had no activity in these assays

From patent US20040146964
